In patent publication US11781164B2, “Demethylation of reticuline and derivatives thereof with fungal cytochrome P450” (priority 2017, dated 2023) one finds Northebaine production data, which are given here for nine molecules.

B1: CYPDN30: cytochrome P450 homolog A0A1X2H4N2 from Syncephalastrum racemosum, codon-optimized (protein, listed as Syncephalastrum racemosum)
chain: MNALLQRQDKMRDFLNTREGVYGITAAVAVVLISAYSLRRTVYTSRRKDEIATVPYKLPLKGSTEEYRADPRAFVEKYAKMYGPVYRAYLFGEMMTIVSDSYVREIFLNDNFNFFQAVKDRFDMVKLCNCANDEGHGIADIVKRCLNPRLDMYTERVNEQLEEASKEILTEVDTKGSQELMHMYILVQHMVARASATVFVGPELAKNSELIDSFKNMVIQVGSQLRPNPWLEPFPRLNSLRMWYIGKTSPVVRKHRLQLRSAVKPSIDDRLARQKSQGNAFQRPDDLLQDIIERHPEAKTKSDIYDYVVDTLTALIFAALHTTSENSTVVLYRLLQHPELMEELVAEQDAVLLEHGLPKDSSARVMTRQMIKKFEKLDSVCRESFRLRNDYLGLPHTYEGKKDIVLSNGAIIKPGEKAIINLWGNHHSGNTPQSTSQDYFGFDPYRFVKQDKQATKISEDFLFFGLGKHACPGRFFAVQEAKVLISVLLRNYKLSPVDPPYFATDDTMKIPAGRIRIERR
B2: CYPDN29: cytochrome P450 homolog A0A068SBU5 from Lichtheimia corymbifera, codon-optimized (protein, listed as Lichtheimia corymbifera)
chain: MYTLVSFLKDQNIIAVLKNAIHAQQQGTTASSITILSLAVAITTFAVHRIRLYSVKEHGVPLVPYVLPFIGSSPEYRKDPKAFLEKWTAKFGPVFRAHIFGRVYTIISGHYVREVFLNEDFSFEVGMGKTFDGWLITDTKKSELFSTPLVRSMVMKHLAVDVKNYTPRAVEHLTIAAREMLGDIGESKELPHLYPLIQHMVSTAIASILVGLKICKDKDLLETFKNVAVDIGSELNPDSYLYEAFPTISRLRQWYLGKYGKAINKHQEHMLRVLGPEIDERLAAMERGDGGWERPEDILQGILETAKLTSDHPQRYMVPIKWFLILVFASIHTTSQNTTVAMYRLLQHPEVIDELLEEQNQVFEKHHGSNYDDHDITKLLTGEVIKDLVKLDSVCREAMRISSFYAELPHTYIGKSPLTMSNGTIINPGDDVLINGYTNHHDPDIQIDGGGDYAEFKPFRFVEKGRQSTRIGDDYLIFGQGKHACPGRWFAMQEMKTTISFLIRQYIITAKGDIMFLKGHRQKIPMGQVIFQKR
B3: CYPDN4: cytochrome P450 homolog I1CCX6 from Rhizopus delemar, codon-optimized (protein)
chain: MVKSFLKAESPTDRYKRIIHPVASKGNGFYVSKVPFLWAVYVTNPVVAKQVLLKSDIFPKNHAVFHQIGKDSPFTQFLGLDNVALSNGDVWKKQRKVMNPAFHRSLPIKTMASVVNTLFSVIDNSDGPVLITSAMQNFTLDVLGLAIFGFEFKALQGDPDNWTKTYKTVIESLFDPVMNVFATFDTLLTWVYPKRRECSVAISKMNLKFDELAKQKRAEVKSGAYANVPDHDKDLLTLMLEAMEKGEALTSQDELRHNIAVFFLAGHGTTAHTLSFCFYHLAKNKHIQRKLREEIISVLGDEPVDIVPSLEQMKHMKYMNLVIKENLRMNTPADTLFTRDTVEDINLAGHIIPKDTAISIDINAIHHDPKYWHNPEHFIPERFAEGGEQESHEGLTWLPFSNGSRQCIGMNFSLAEQRLVLAMLVRKYEIDIPKDSIHYERILFDRPGNIAPLSLGLTFTKRY
modifications: Rhizopus delemar
B4: CYPDN6: cytochrome P450 homolog A0A0B7NKC0 from Parasitella parasitica, codon-optimized (protein, listed as Parasitella parasitica)
chain: MAVLCLVLERIYASYAVPPSYLRHYPKVSLFDMLKSFYIKESVASRNKRLIAPLTNAGHGFYVCRIPLNWTIYVTDPLAAKTLLLKSENFPKNKAIFTALGDSSPVIKFMGKENVAMSNGEEWKKQRKIMNPAFHRSQPVKTFGNVMPDLFALIDQDPERVFITPKMKSFALDALGLSAFGFDFQSLKGDPEGWTRKYNVVISTLFNPFVNIFASLDFLVKYISPERRRVIKATDEFNSMLGELADKRRQEILDGEKKNIPENEKDLLTLMIEADIRDNIKTTTTELRHNMAIFFLAGHDSTANTLSLCLYNLAKHKHVQKKARQEVLAILGDEPLDVIPTAEDLKKLDYVNMVIKENLRRNGPADNLMSRDTQQDMNLNGTIIPKGSKVSVNVAAIHLNPKIWHDPENFIPERFEQGGEFEQHDGFTWIPFSNGSRQCLGLNFSLTEQRVVLCMILKRYEIDIPKDSIHYNEIVFDGAFTFAPQSLELSFKRRY
B5: CYPDN35: cytochrome P450 homolog A0A1X2GSL0 from Hesseltinella vesiculosa, codon-optimized (protein, listed as Hesseltinella vesiculosa)
chain: MLTQYLQFAADRLGQKKTLDQLQAVVTSKQGVVGITTAVALIALANHFRSPKIDRGCPQVEGKGWFGYATEEFRENPGKFLSEWHEKLGPVYGVKIFGHYATVVSGPYVREVFLDDRFSFIAAITKLFDPNLMTDSGHSSEQTAKNAADSIKRFLSPNLKHYTPRVIEHLNLGIEDWCGEVPAEGIEIENAFPFLQHLVARASASVFVGIELAKNEELVDSFQNMVSNISSGLKPKPWLEYFPSLTKLGMYMIGKTNPAVKRHRTQMANALRPEVDRRLKAMASNDTNWDRPDDMLQHILESYPAPEGLDVITYLINWMTQLIFAALHTTSENGKVVLYRLLQHPEVMEELYAEQNEVLAAAGYDESAGPEVFDREMLNKFVKLDSAVREACRLKNEFVGLPHENTTDKTLTLSNGAVILPGEFVYINQFVNHRDPELQAAIDDVHQFKPFRFVGTDHNAAKVSEGFVFFGMGRHACPGRWFAIQEIKTIVSLLLRKYKVEPIDPIVFSNQERDAFPIGPCRIRLTPRKAL
B6: CYPDN31: cytochrome P450 homolog A0A291C3B2 from Absidia caerulea, codon-optimized (protein, listed as Absidia caerulea)
chain: MLTEYIHHFINNFDQKKTMDQLQTMVSSKEGMIGLATAAVLMSGAAVYKSTRIERGCPQVPNQSYFMGSTKEYRNNPAAFIEKWEKELGPVYGAYLFGQYTTVVSGPQVREVFLNDDFDFIAGIRRDFDTNLLSNGGDLRDLPVHKFAGSIKKNLSPKLPFYTSRVIEHLKIGLKEFCGVVPDEGKEFDHVYPLVQHMVAKASASVFVGPELAKNEQLIDSFKNMVLEVGSELAPKPYLEFFPNLMRLRMWFIGKTSQKVKRHRDQLRAALAPQVEYRLKAMKENDSNWDRPNDFLQDILESGDIPAHVDVTDHCCDWMTQIIFAALHTTSENGTLSFYRLLDNPKVLEDLLEEQNQVLEDAGYDSSVGPEVFTREILNKFVKMDSVIRETSRLRNDYIGLPHKNISSKTITLSGGAMIRPGERAYVNAYSNHRDGTIQKVTDNLKSFEPYRFVNQDRNSTKIGEDFIFFGMGKHACPGRWFAIQEIKTIIAMMIRSYQLSALGPVTFPTDDYSRIPMGRFKIVPRK
B7: CYPDN34: cytochrome P450 homolog A0A068SBP8 from Lichtheimia corymbifera, codon-optimized (protein, listed as Lichtheimia corymbifera)
chain: MYKAFLDNGIVSSIISTLDNKDISVFLNDPNHAKTRSVALVSFCTVIAAYALSRSRSHSKDKDTPMVPYTWPLIGSSREYRKDPEAFIKKWSSELGDVYKVHLFGRIQTVVSGKHVYCLQKDFDFQQGMSKTFDIWLLLDAPLGGRFTLDKIRHATIKFTRTKMLTNTPCVVKQLIAAEHEMIGDAQTPSEIANLYPLMEHLVAIASATNFVGPGLTKDKDLVETYKHLAVDVGSELGDGNEFLEAFPWISRLRMWYLGKYGNSVDKHRKRLLRAMKPIIDERLAAAENGIENPQDFIQDIIEESEITSGDPDKYILAVRWILVMIASAGHTTTENTTIILYRILQHPEVIDELLEEQRQVLEKHHGPDVKDNEDLATLFTGEVIKDLVKLDSVCRETMRLRSFYIDLPHTYVGKSPLALTNTCTIKPGEDVLLNMWLNHNRTAMQYDGLGDYNEFKPFRFVGLDRSSTKLGGDFLLFGLGTHACPGRWFAMHQTKTILSMLLRRYQITPQETIVFPIGNRSHVPSGKVTFQKRQ
B8: CYPDN5: cytochrome P450 homolog A0A1X0RYU8 from Rhizopus microsporus, codon-optimized (protein, listed as Rhizopus microsporus)
chain: MELTEIAIETYHRALDKLVPILQKRSKRSYIGVAVALVVLERIYSFFRVPKSIRHIPAVPYFAMAKSFLTSEAPSSRHQRIVLPVIEKGNGIYVNKLPLEWTVNVATPTSAKHVLLKSEIYPKSESFLKLLGPQSPAVLFLGGKNVGFVNGDAWRKQRKIMNPAFHRSMPIQTMASVMPDFFSAIDKYGDEGIPISTIMRDFTLDVLGHTAFGFDFKALKGDPDNWTRTYHIINNALFNPTANMLTSLNPILSIISPERRRILEAIKKLNGMLEAMIKQKRQEVQSNAQAHAPENEKDLLTLMLEAQQRGEGLATDEELKHNVSGFFLAGHDTTSETLSFYFYNIAKNKDVQRKLREELNAVLGDKPVDVIPTLEQLKSMEYLNCTIKENLRLNGPADNVLPRVATEDMVVDGTPIPKGTVVNVDIHAIHHDTRYWKDPYKFVPERFLPGGEHDSHSGMTWLPFGNGARQCLGMNFSLAEQRLVIAMTVRKYDIEVPKDSIHYDHPILESSKTKAPASLKLIFRKRY
B9: CYPDN28: cytochrome P450 homolog A0A1X2HYB6 from Absidia repens, codon-optimized (protein, listed as Absidia repens)
chain: MLTQYIHQFFNNFDQKKTMDQLQSVASSKDGVIGIATALILISGVAAYKSSTVERGCPQVPCGTFSFGSTSEYRENPVAFVKKWEEKLGPVFGAQLFGQYATIVSGPQVREIFSNENFSFMAGIQRDFDTYLLANGGSIHDLPPHVVSGGIKKNLSPKLPFYTSRVIEHLKIGLYEQCGVVPDEGKEFDHVYPFVQHMVAKASASVFVGPELAKDLNLVDSFKNMVLEVGSDMGPKPYLEHFPHLMRLRMWYIGKTSTNVKRHRDQLFAALVPQIDSRLKAMKEKDSNWDRPNDFLQDILETDDCPPHMDIYSYCVDWMTQIIFAALHTTSENGTIVLYRLLDNPKVLEELYEEQNAVLEEAGYDDTVGPEVFTREILNKFVKMDSVIRESCRLRNDYIGLPHTNVGKKTIVLSGGAMIRPGENAFVNFYSNHRDEKLQKSGMNANNFEPYRFVDQGKNSTKIGDDFMFFGMFKHACPGRWFAIQEIKTILAMLIRSYKMSAIDSVVFPTSDYTRIPTGRFKIVPRK

The subject of this data set is thebaine. In words: Demethylation of thebaine by new cytochrome P450 fungal and plant homologs co-expressed with CPRs in S. cerevisiae. The note with it: 0.5 mM thebaine, SC or DELFT media pH 7, 72 h, 30° C.; co-expressed with Cel_CPR_co, Tp_CPR_5866, Tp_CPR_DN10898 or POR1.
As for B1, the Northebaine production entry is “+”. As for B2, the entry is “+”; as for B3, “−”. As for B4, the entry is “+”.

In the case of B5, the Northebaine production entry is “+”.

For B6, the Northebaine production entry is on record as “+”. As for B7, the entry is “+”. In the case of B8 it was “+”; in that of B9, “+”.
